T1: 人N端脑钠肽前体 (N-terminal pro-brain natriuretic peptide, NT-proBNP) (human, UniProt P16860 27-102)
T1 construct: domain: N端脑钠肽前体 (NT-proBNP), 76个氨基酸残基; Bought recombinant protein; also called hNT-proBNP; 人N末端B型脑钠肽前体
T1 sequence (looked up): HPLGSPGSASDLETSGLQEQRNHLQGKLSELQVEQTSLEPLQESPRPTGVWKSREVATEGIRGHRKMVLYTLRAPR

B1: 单克隆抗体Ab3 (抗人N端脑钠肽前体单克隆抗体) (antibody, V domains shown)
VH: QVQLQQPGAELVKPGASVKMSCQASGFTFTNYIIHWVKQTPGQGLEWIGAIYPGNGDTSYNQKFRGKATLTADKSSNTAYMQLSSLTSEDSAVYYCAGEDNYGNSYWYFDVWGAGTTVTVSS
VL: DIVMTQTPLSLPVSLGDQASISCRSSQSIVHSTGNTYLEWYLQKPGQSPKLLIYKVSNRLSGVPDRFSGSGSGTDFTLKISRVEAEDLGVYYCFQGSQVSLTFGAGTKLELKR
B2: 单克隆抗体Ab1 (抗人N端脑钠肽前体单克隆抗体, 杂交瘤细胞株3A2分泌) (antibody)
chain 1: VKLQESGPELVKPGASQKISCKTSGYTFTVYTLHWVKQSHGKSLEWIGAINPKTGSIRNNQKFRDKAILTIDRSSNTAYMDLRSLTSDDSAVYFCARNGGHDVYFFDYWGQGTTVTVSS
chain 2: DIVLTQSPASLAVSLGQRATISYRASKSVSTSGYSYMHWNQQKPGQPPRLLIYLVSNLESGVPARFSGSGSGTDFTLNIHPVEEEDAATYYCQHIR

How the values were obtained:
[1] = target: T1, 人N端脑钠肽前体 (N-terminal pro-brain …); assay: indirect ELISA, NT-proBNP coated at 400 ng/ml, serially diluted purified ascites antibody
[2] = target: T1, 人N端脑钠肽前体 (N-terminal pro-brain …); assay: non-competitive enzyme immunoassay (ELISA), NT-proBNP coated at 400, 100, 25 ng/mL, Ka=(n-1)/2(n[Ab']t-[Ab]t)

Binder	效价 (antibody dilution at OD450 about 1.0) [1]	Ka [2] [M⁻¹]
B1	> 1e+06 dilution fold (1:x)	–
B2	> 1e+06 dilution fold (1:x)	1e+10
